Measurements reported in patent US7749968B2, “Peptides for targeting the prostate specific membrane antigen” (The Johns Hopkins University, priority 2002, dated 2010).

Target: T1, Tag-xPSM (Homo sapiens, UniProt Q04609)
T1 construct: made in house; host or cells: Sf-9 insect cells infected with recombinant baculovirus; protein harvested from the media
Test: Tag-xPSM phage display selection (agarose/cellulose), sequencing of selected phage
Format: binding
Protocol: 100 μl of S-protein agarose (2× in RPMI 1640+1% Fetal Bovine Serum (FBS) and 100 μl of CBind Resin (10 mg/ml in RPMI 1640+1% FBS) without fusion protein were used to negatively select the original phage display library. 2×10^11 plaque forming units (PFU) of 1.29×10^9 different sequence phage were incubated with each aliquot of resin for 1 hr at 37° C., while rotating. The S-tag agarose was pelleted and supernatant saved as the agarose counter-selected pool. The cellulose resin was transferred onto 200 μl of 9:1 dibutyl phthalate:cyclohexane and the resin pelleted through the organic phase. The aqueous supernatant was saved as the cellulose counter-selected pool. Each counter selected pool was then added to tag-xPSM agarose or cellulose resin and incubated for 1 hr at 37° C., while rotating. The tag-xPSM agarose was pelleted and washed three times in RPMI 1640+1% FBS. The agarose pellet was then saved for phage isolation. The Tag-xPSM cellulose was transferred onto 200 μl of 9:1 dibutyl phthalate:cyclohexane and the resin pelleted through the organic phase. The tube was then snap frozen in liquid nitrogen to isolate the resin pellet. Over 75% of Tag-xPSM remained bound to the cellulose resin through these conditions. The resulting phage-bound tag-xPSM agarose and tag-xPSM cellulose were then resuspended in 200 μl of log phage ER2738 cells and phage allowed to infect 1 hour at room temperature. A small aliquot was taken at this time to quantitate the number of phage bound per round of selection. The remaining PSMA bound phage was then amplified, tittered, and applied to the next round of phage display. There was only one counter-selection round, followed by a total of five positive selection rounds, applying between 10^10 to 10^11 PFU per round. The final round of selection included cross-selections, where selected phage pools from one PSMA background where applied to the other. Individual phage were isolated and sequenced from rounds three through five.
Individual phage plaques were amplified for 5 hours in ER2738 cells at 37° C. Amplified supernatant was incubated 1:1 with PEG/NaCl buffer (20% PEG 8000, 2.5 M NaCl) for 10 minutes at room temperature. Phage were microfuged 10 minutes at 20,000 g, 4° C. The phage pellet was suspended in 100 μl Iodide buffer (10 mM Tris-HCl, pH 8.0, 1 mM EDTA, 4M NaI). Single stranded DNA (ssDNA) was precipitated with 250 μl of 100% ethanol, pelleted, and washed in 70% ethanol. Each ssDNA pellet was suspended in 30 μl 10 mM Tris, pH 7.4. Each phage was sequenced using the Amersham DYE ET mix, by incubating 6 μl ssDNA, 1 μl of 5 μM-96 pill Sequencing Primer ([…]; SEQ ID NO:108), and 8 μl of DYE ET mix in a 96 well PCR plate and amplified by 30 cycles of 95° C. for 20 seconds, 50° C. for 15 seconds, and 60° C. for 1 minute. Sequencing reaction products were spun through G50-fine Sephadex column plates, prepared on Millipore-multiscreen plates. Products were sequenced and analyzed on the MegaBACE capillary sequencer. All sequences, minus the flanking cysteines, were aligned using the Baylor College of Medicine Clustal W1.8 Global Progressive Alignment (available online) with data presented by Boxshade 3.21 software (available online through the Swiss Institute for Bioinformatics).
2×10^11 plaque-forming units (PFU) of the library was incubated with each aliquot of resin for one hour at 37° C., while rotating. The S-tag agarose was pelleted and the supernatant saved as the agarose counter-selected pool. The cellulose resin was transferred onto a 9:1 ratio of dibutyl phthalate:cyclohexane and the resin centrifuged through the organic phase. The aqueous supernatant was saved as the cellulose counter-selected pool. Each counter selected pool was then added to tag-xPSM agarose or cellulose resin, respectively, and incubated for one hour at 37° C., while rotating (see FIG. 2). The Tag-xPSM agarose was pelleted, washed, and saved for phage isolation. […]

T1 sequence (Q04609 44-750 limits assumed): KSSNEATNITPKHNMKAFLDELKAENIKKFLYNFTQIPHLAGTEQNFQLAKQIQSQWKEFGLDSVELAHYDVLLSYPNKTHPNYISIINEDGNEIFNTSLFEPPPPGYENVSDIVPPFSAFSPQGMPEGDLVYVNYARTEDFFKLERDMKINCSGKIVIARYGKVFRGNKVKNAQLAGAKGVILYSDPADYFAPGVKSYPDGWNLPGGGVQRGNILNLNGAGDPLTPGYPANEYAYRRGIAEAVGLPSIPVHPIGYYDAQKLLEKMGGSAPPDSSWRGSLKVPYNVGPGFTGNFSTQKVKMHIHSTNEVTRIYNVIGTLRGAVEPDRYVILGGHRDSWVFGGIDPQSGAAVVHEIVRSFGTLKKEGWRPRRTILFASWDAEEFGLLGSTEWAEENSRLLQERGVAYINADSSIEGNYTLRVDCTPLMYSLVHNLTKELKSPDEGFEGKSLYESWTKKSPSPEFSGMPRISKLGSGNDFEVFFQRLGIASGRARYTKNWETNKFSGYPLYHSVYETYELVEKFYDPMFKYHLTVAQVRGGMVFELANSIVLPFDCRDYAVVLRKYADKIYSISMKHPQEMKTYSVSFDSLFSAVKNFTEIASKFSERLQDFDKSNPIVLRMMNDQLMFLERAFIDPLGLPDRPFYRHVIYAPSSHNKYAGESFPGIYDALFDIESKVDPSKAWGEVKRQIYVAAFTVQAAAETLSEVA

Number of times sequence was found, Round 3 (Agarose) | Number of times sequence was found, Round 4 (Agarose) | Number of times sequence was found, Round 5 (Agarose) | Number of times sequence was found, Round 3 (Cellulose) | Number of times sequence was found, Round 4 (Cellulose) | Number of times sequence was found, Round 5 (Cellulose) | Sequence
1 | 0/0 | 0/0 | 0 | 0/0 | 0/0 | CQFRHSAQC [SEQ ID NO:23]
0/0 | 0 | 0/0 | 0/0 | 1 | 0/0 | CHTSLKTHC [SEQ ID NO:14]
0/0 | 0/0 | 0 | 0/0 | 0/0 | 1 | CSTRAPHLC [SEQ ID NO:5]
0 | 3/3 | 0 | 1 | 3/3 | 3 | CTITSKRTC [SEQ ID NO:2]
0 | 0/0 | 0/0 | 1 | 0/0 | 0/0 | CTSNNSAIC [SEQ ID NO:27]
1 | 0/0 | 0/0 | 0 | 0/0 | 0/0 | CFPQSSDRC [SEQ ID NO:24]
1 | 0/0 | 0/0 | 0 | 0/0 | 0/0 | CTNSNMHHC [SEQ ID NO:22]
0/0 | 0 | 0/0 | 0/0 | 1 | 0/0 | CGLPTRTAC [SEQ ID NO:16]
0/0 | 0 | 0/0 | 0/0 | 1 | 0/0 | CHKFQSKMC [SEQ ID NO:17]
0/0 | 0 | 0/0 | 0/0 | 1 | 0/0 | CLSTTISYC [SEQ ID NO:21]
0/0 | 0 | 0/0 | 0/0 | 1 | 0/0 | CNKSSLGTC [SEQ ID NO:13]
0/0 | 0/0 | 0 | 0/0 | 0/0 | 1 | CSSHSTVHC [SEQ ID NO:7]
0/0 | 0/0 | 0 | 0/0 | 0/0 | 1 | CKPSMMSYC [SEQ ID NO:8]
0/0 | 0 | 0/0 | 0/0 | 1 | 0/0 | CTPLSPRYC [SEQ ID NO:12]

Further lines, the sequence ahead of its results:

Sequence | Number of times sequence was found, Round 3 (Agarose) | Number of times sequence was found, Round 4 (Agarose) | Number of times sequence was found, Round 5 (Agarose) | Number of times sequence was found, Round 3 (Cellulose) | Number of times sequence was found, Round 4 (Cellulose) | Number of times sequence was found, Round 5 (Cellulose)
CLKSHSHQC [SEQ ID NO:15] | 0/0 | 0 | 0/0 | 0/0 | 1 | 0/0
CHTTTDVYC [SEQ ID NO:25] | 1 | 0/0 | 0/0 | 0 | 0/0 | 0/0
CPSVNTKQC [SEQ ID NO:9] | 0/0 | 0/0 | 0 | 0/0 | 0/0 | 1
CLSSNSSLC [SEQ ID NO:28] | 0 | 0/0 | 0/0 | 1 | 0/0 | 0/0
CQTPYDLRC [SEQ ID NO:10] | 0/0 | 0/0 | 0 | 0/0 | 0/0 | 1
CPIMLSEPC [SEQ ID NO:26] | 1 | 0/0 | 0/0 | 0 | 0/0 | 0/0
CKHSVSPSC [SEQ ID NO:18] | 0/0 | 0 | 0/0 | 0/0 | 1 | 0/0
CKPTNQHKC [SEQ ID NO:19] | 0/0 | 0 | 0/0 | 0/0 | 1 | 0/0
CHTKHASHC [SEQ ID NO:6] | 0/0 | 0/0 | 0 | 0/0 | 0/0 | 1
CAPNKYKHC [SEQ ID NO:11] | 0/0 | 1 | 0/0 | 0/0 | 0 | 0/0
CDAVRYPVC [SEQ ID NO:20] | 0/0 | 0 | 0/0 | 0/0 | 1 | 0/0
